Data reported in US20130045267A1, “METHODS OF USING AGENTS THAT MODULATE CLAUDIN EXPRESSION” (priority 2010, published 2013).

Columns and labels:
[1] = tested on: connexin-26 (GJB2); experiment: qPCR of connexin-26 (GJB2) after claudin-1 knockdown in PHK; assay type: cell-based, human; conditions: claudin-1 siRNA transfected PHK, n=6
Description: (§1) QPCR was performed using the iScript™ cDNA Synthesis kit and iQ™ SYBER Green Supermix assay system (Bio-Rad Laboratories). All PCR amplifications were carried out in triplicate on an iQ5 Multicolor real-time PCR detection system (Bio-Rad). Primers were designed and synthesized by Integrated DNA Technologies (Table 1). Relative gene expression was calculated by using the 2^−ΔΔCt method. Livak and Schmittgen, “Analysis of Relative Gene Expression Data Using Real-Time Quantitative PCR and the 2(−Delta Delta C(T)) Method,” Methods 25:402-8 (2001), which is hereby incoporated by reference in its entirety. The normalized Ct value of each sample was calculated using GAPDH as an endogenous control gene.
(§2) PHK were plated on glass coverslips at 2-3×10^5 cells/well in a 6-well plate or at 2-3×10^4 cells/filter in Transwell insert (Costar; PET membrane, 0.4 μm pore size, 6.5 mm insert) in Keratinocyte-SFM without antibiotics. The next day after plating, cells were transfected with claudin-1 specific or control (scrambled) siRNAs (Santa Cruz) using Lipofectamine™ 2000 transfection Reagent (Invitrogen). TEER and permeability experiments were conducted 48 hours after PHK were switched to differentiation media.

[2] = tested on: occludin, ZO-1, nectin-1, E-cadherin or filaggrin; experiment: qPCR of other barrier proteins after claudin-1 siRNA in PHK; assay type: cell-based, human; conditions: siRNA 100 nM, n=5/group
Description: as §1, §2

[3] = tested on: primary human keratinocytes (PHK); experiment: Click-iT EdU proliferation assay in PHK; assay type: cell-based; conditions: n=3
[4] = tested on: claudin-1; experiment: Western blot of claudin-1 protein in primary human keratinocytes; assay type: cell-based; conditions: PHK
Description: Human keratinocytes were isolated from neonatal foreskin. Poumay et al., “Basal Detachment of the Epidermis Using Dispase: Tissue Spatial Organization and Fate of Integrin Alpha 6 Beta 4 and Hemidesmosomes,” J. Invest. Dermatol. 102:111-7 (1994), which is hereby incorporated by reference in its entirety. PHK were cultured in Keratinocyte-SFM (Invitrogen/Gibco) with 1% Pen/Strep, 0.2% Amphotericin B (Invitrogen/Gibco). To differentiate PHK, cells were grown in DMEM (Invitrogen/Gibco) with 10% heat-inactivated fetal bovine serum (Invitrogen/Gibco) and 1% Pen/Strep, 0.2% Amphotericin B (Invitrogen/Gibco). For TJ modulation experiments, the following cytokines were added alone or in combination to the differentiation media; human IL-4 (50 ng/ml; R&D system) and IL-13 (50 ng/ml; R&D system).
PHK were lysed on ice in RIPA lysis buffer (20 mM Tris, 50 mM NaCl, 2 mM EDTA, 2 mM EGTA, 1% sodium deoxycholate, 1% TX-100, and 2% SDS, pH 7.4), with 1:100 Protease Inhibitor Cocktail (Sigma), 1:100 Phosphatase Inhibitor Cocktail ([…] for 30 min at 4° C. The samples were heated at 95° C. for 10 min and then centrifuged at 14,000 rpm for 15 min. Forty μg of protein, determined by BCA (Pierce) in NuPage LDS Sample Buffer (Invitrogen) was applied to 4-12% NuPage Bis-Tris gels (Invitrogen). Electrophoresis was performed under reducing conditions with MES SDS Buffer (Invitrogen). Membranes were incubated in blotting solution (5% non-fat dry milk in PBS+0.05% Tween 20) at RT for 1 h and then incubated with primary antibodies; claudin-1 (JAY.8; Zymed), occludin (OC/3F10; Zymed) and GAPDH (FL-355; Santa Cruz). An HRP-linked secondary antibody (GE Healthcare) was used with ECL (GE Healthcare) to visualize bands by autoradiography with Kodak BioMax MR film. The pixel intensity of each band was estimated with Image J.
as §2

[5] = tested on: nectin-1 (PVRL1); experiment: qPCR of nectin-1 (PVRL1) after CLDN1 siRNA in PHK; assay type: cell-based, human
Description: as §2, with “a E-well” for “a 6-well”, “Transwell inserts” for “Transwell insert”, “(Invitrogen).” for “(Invitrogen). TEER and permeability experiments were conducted 48 hours after PHK were switched to differentiation media.”
Reverse transcription was performed from total RNA using iScript™ cDNA Synthesis kit (Bio-Rad) according to the manufacturer's protocol. qPCR was performed using the iQ™ SYBER Green Supermix assay system from Bio-Rad Laboratories. All PCR amplifications were carried out in triplicate on an iQ5 Multicolor real-time PCR detection system (Bio-Rad). Primers were designed and synthesized by Integrated DNA Technologies. […]
Relative gene expression was calculated by using the […], in which Ct indicates cycle threshold, the fractional cycle number where the fluorescent signal reaches detection threshold. Livak and Schmittgen, “Analysis of Relative Gene Expression Data Using Real-Time Quantitative PCR and the 2(−Delta Delta C(T)) Method,” Methods 25:402-8 (2001), which is hereby incorporated by reference in its entirety. The normalized Ct value of each sample was calculated using GAPDH as an endogenous control gene.

[6] = tested on: primary human keratinocytes (PHK); experiment: Trans Epithelial Electric Resistance (TEER) in PHK monolayers; assay type: cell-based
Description: PHK were plated at a subconfluent density of 2.5−3×10^4 cells/filter in Transwell insert and cultured in Keratinocyte-SFM media until confluent. TEER was measured using an EVOMX voltohmmeter (World Precision Instruments, Sarasota, Fla.). The resistance of cell-free filters was subtracted from each experimental value.
as §2
TEER was measured in PHK as described above. PHK were stimulated with S. aureus-derived peptidoglycan (PGN, 0.2-20 μg/ml, n=3-7) (FIG. 19A), Malp-2 (10-1000 ng/ml, n=3) (FIG. 19B), and Pam3CSK4 a TLR1/2 ligand (0.01-20 μg/ml, n=3-6) (FIG. 19C). Data are presented by analyzing the area under the TEER curve and normalized to the mean values for the control group (media alone)*p<0.05; **p<0.01.

B1: CLDN1 siRNA: claudin-1 specific siRNA (Santa Cruz), a pool of 3 separate strands, SEQ ID NO: 10-15 (nucleic acid)
chain 1: UACAUAGGCAUAGUUCAUGNN
chain 2: CAUGAACUAUGCCUAUGUANN
chain 3: AACGUAUGCAGUUAAUUCCNN
chain 4: GGAAUUAACUGCAUACGUUNN
chain 5: UGAAGAUCUAUGUAUGUGGNN
chain 6: CCACAUACAUAGAUCUUCANN
modifications: chemistry not given here
connexin-26 (GJB2) expression over control [1]: 1.7±0.8 fold
mRNA expression of occludin, ZO-1, nectin-1, E-cadherin or filaggrin ([2]; listed as Cldn1 siRNA): no effect
mRNA expression of occludin, ZO-1, nectin-1, E-cadherin or filaggrin ([2]; listed as claudin-1 siRNA): no changes
cell proliferation by Click-iT EdU assay ([3]; CLDN1 siRNA, PHK): enhanced cell proliferation
proliferating cells ([3]; claudin-1 depleted PHK): 21.6±1.4 EdU positive cells/hpf
claudin-1 protein by Western blot ([4]; CLDN1 siRNA, 48 h): dose-dependent reduction
decrease in claudin-1 protein expression compared to scrambled siRNA-transfected cells ([4]; dose-dependent): ≤ 60%
nectin-1 mRNA expression, effect of CLDN1 silencing ([5]; n=5): not affected
nectin-1 (PVRL1) mRNA relative expression ([5]; siRNA 100 nM, n=5/group): 0.99±0.16
reduction in TJ function (electrical resistance and permeability assays) ([6]; claudin-1 siRNA, PHK): ~50%
TEER ([6]; siRNA 100 nM, 48 hours after switch to differentiation media, n=4): 80.6±6.4 ohms×cm^2
drop in TEER ([6]; siRNA 100 nM, vs scrambled siRNA): > 50%
